Here are results for one molecule from article PMC2973827.

For this data set, the target named is SARS-CoV nsp12 (RdRp) (SARS-coronavirus, UniProt P0C6X7 4370-5301). The data set is described as follows: EMSA; no Zn2+. The note with it: protein: recombinant; tags: C-terminal His6 (plasmid pASK3-Ub-nsp12-CHis6, ubiquitin fusion vector); label: 5' 32P.

B1: SAV557R/SAV481R primed template duplex (dsRNA)
RNA 1: GCUAUGUGAGAUUAAGUUAU
RNA 2: UUUUUUUUUUAUAACUUAAUCUCACAUAGC
On to B1, for which the binding result was “binds”.
